# From the supplement of paper PMC12042874
# ± gives the uncertainty stated by the source.
# Assay: amyloid nucleation score (Sup35N fusion, yeast selection) (log enrichment); library NNK1; higher = more nucleation; inactive = no reads after selection
# How it was run: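 Sup35N fusions to peptides of 20 random codons were expressed in psi-negative yeast, induced 24 hours with 100 μM copper sulfate, and grown 7 days at 30°C on medium lacking adenine and uracil. Input and output plasmid inserts were sequenced by Illumina. The nucleation score is the DiMSum log enrichment of output over input reads, centred on the mode score of non-aggregating sequences. Sequences with under 100 input reads were excluded.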
row,Substance,amyloid nucleation score
1,YSLNTSTAWESAAAVTW,0.196 ± 0.4
2,YSLSRCSSEDMSYVYWCSRS,0.119 ± 0.32
3,YSLVICNQNSFPNMVDIVLG,2.53 ± 0.074
4,YSNWTVSTSFSNHERHVFLA,0.839 ± 0.39
5,YSRGGFGHWFQHSL,-0.482 ± 1.7
6,YSRLRVCTNSAMLELGFS,1.03 ± 0.26
7,YSTYQ,0.369 ± 0.29
8,YSVDQYSNTMRLTLHMLVFV,0.455 ± 0.79
9,YSVPVCGDMLTGWYCNKYKY,inactive
10,YSWILKKWVFVYSLFTSGHM,0.278 ± 0.55
11,YSYLV,-0.716 ± 0.84
12,YTCLHGGSGVPPYLFQEHYS,0.193 ± 0.39
13,YTINPRKIRGTPPPIPCRVQ,0.16 ± 0.73
14,YTVLEGGALCFLKELRHRIL,-0.146 ± 0.32
15,YVCIGFYSSPVLGIDFLGNK,3.53 ± 0.11
16,YVCPRSWVVRVRHQKTFQSY,-0.374 ± 0.81
17,YVFSCTGLNR,-1.03 ± 1
18,YVFSLVSESLQIIYHPLLLL,-0.189 ± 0.41
19,YVIKKWTTCVLDFWHHFSFR,0.583 ± 0.48
20,YVILFVIVVGSA,0.654 ± 0.84

row,Substance,amyloid nucleation score
1,YVLRPFGLLKWSNSVGPHER,-0.106 ± 1.2
2,YVMDMIYFYDGLVWSCLCWI,inactive
3,YVNFLGLLDCEL,-0.028 ± 0.48
4,YVRRSCSSRESYSCNCLYVY,0.532 ± 0.92
5,YVSCFRG,0.925 ± 0.3
6,YVSVVCLFVPDKFRNVTDL,6.87 ± 0.073
7,YVSYRIVLGRMPGMKHSRKR,3.6 ± 0.088
8,YVVLASVMLITYVRA,0.786 ± 0.38
9,YVVNGYSICGFDAEVIVLQL,1.19 ± 0.18
10,YWCAISSVSLKFLVMSYLSG,-0.362 ± 1.1
11,YWDKMTLTKNFKWLDLLGVG,inactive
12,YWKSIRPILIEC,inactive
13,YWNMTCNTV,-0.139 ± 0.52
14,YWSLVVAAWRMENGWHGFLL,0.059 ± 0.39
15,YYFIFII,4.79 ± 0.074
16,YYLSLMYSTLYRTKIFWARE,-0.077 ± 0.79
17,YYNVCHNRINLVTSWFFYRR,0.946 ± 0.78
18,YYTCGMYPIYRCCLRTMYSA,-0.494 ± 0.22
19,YYWVT,-1.16 ± 2.4
